The source of these data is patent US20040259798A1.

Bridge positions count the residues as written; N and C are the ends. Ends that are not written are not given here.

Test [1] concerns the target β2 integrins on THP-1 cells. Put plainly: inhibition of THP-1 cell adhesion to coated LLG-C4-GST.
The target in test [2] is β2 integrins on THP-1 cells. Put plainly: inhibition (partial) of THP-1 cell adhesion to coated type IV collagen, phosphatase assay.
For test [3], the target named is β2 integrins on THP-1 cells. In words: inhibition of THP-1 cell adhesion to coated von Willebrand factor, phosphatase assay.
Test [4] concerns the target β2 integrins on THP-1 cells. Put plainly: inhibition of THP-1 cell adhesion to coated LLG-C4-GST, phosphatase assay.

CPCFLLGCC (disulfide 1-9, 3-8) [C(1-9;3-8) peptide] yielded a fold less active than C(1-8;3-9) in test [1] of 20 fold.

As for CPCFLLGCC (disulfide 1-8, 3-9) [C(1-8;3-9) peptide], the IC50 in test [2] amounted to 200 µM; in test [3] it was 20 µM; in test [4], 20 µM.
